Kd data for one molecule are collected here from article PMC10113271 (2023).

Where no end group is shown, it is not given here. The star is where a group is joined. FITC = O=C1OC2(c3ccc(O)cc3Oc3cc(O)ccc32)c2ccc(NC(=S)*)cc21; βAla = NCCC(=O)O

This test has as its target KIX domain of CREB-binding protein (residues 586–672 of mouse CBP) (mouse, UniProt P45481 586-672). Put plainly: FP.

Sequence of KIX domain of CREB-binding protein (residues 586–672 of mouse CBP) (P45481 586-672): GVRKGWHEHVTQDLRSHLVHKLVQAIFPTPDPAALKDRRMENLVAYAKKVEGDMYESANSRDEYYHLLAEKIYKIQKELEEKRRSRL

B1: FITC-labeled c-Myb TAD peptide (peptide)
peptide: {FITC-βAla}-GYNDEDPEKEKRIKELELLLMSTENELKGQQAL
Take B1: the Kd (in general, the free concentration of one partner at which half of the binding sites on the other are occupied at equilibrium, for simple one-to-one binding) came to 59 nM.
